Measurements reported in the RNAGym collection of RNA variant scans (doi:10.7554/elife.80360).

B1: HDV Ribozyme (parent)
chain: GGCCGGCAUGGUCCCAGCCUCCUCGCUGGCGCCGGCUGGGCAACAUUCCGAGGGGACCGUCCCCUCGGUAAUGGCGAAUGGGACCCA

Variants of: B1
Assay: self-cleavage, relative activity (ratio to wild type); higher = more cleavage; co-transcriptional

Row | Variant | self-cleavage
1 | G25A C62A | 0.168
2 | A16C U65G | 0.755
3 | C19G C22G | 0
4 | C24U C32U | 0.422
5 | C7G C32G | 0.115
6 | C7A C86U | 0.831
7 | C64U A70G | 0.701
8 | G54A G82C | 0.282
9 | A8U G73U | 0.199
10 | C36A G74C | 0.0997
11 | U20G G35C | 0
12 | G59C U72A | 0.773
13 | U23C G39U | 0.716
14 | C13A C24G | 0.117
15 | A42G C63A | 0.359
16 | G10U G53C | 0.773
17 | G67C G81U | 0.157
18 | A8G C49U | 0.692
19 | G55C G73A | 0.751
20 | G39A A78C | 0.0563
21 | A8C A51G | 0.997
22 | G6A A51C | 0.522
23 | C15A U20A | 0.0573
24 | C3A G53U | 0.527

Row | Variant | self-cleavage
25 | C13U C33G | 0.252
26 | G39C U47G | 0.199
27 | G55A C58A | 0.978
28 | U23C C84G | 0.739
29 | A51G A78C | 0.318
30 | G50C C75U | 0.162
31 | C19U C33G | 0.0923
32 | G54U G82C | 0.237
33 | G29A C57U | 0.234
34 | C14G G29A | 0.107
35 | C14U C63U | 0.927
36 | G17A G82C | 0.166
37 | C48A G82U | 0.496
38 | C15U A77G | 1.14
39 | G1U C21A | 0.397
40 | G52A U79C | 0.514
41 | U46G A87G | 0.724
42 | C41A G50C | 0.877
43 | G6C A78G | 0
44 | G40A A71U | 0.796
45 | C33U G52C | 0.596
46 | C14G C86A | 1.03
47 | C66G A70G | 0.831
48 | U23A C62A | 0.872

Row | Variant | self-cleavage
49 | G17A G80A | 0.205
50 | C64G G82A | 0.535
51 | C41G C62G | 0.252
52 | U37G G50U | 0.135
53 | G55A C84A | 0.992
54 | G38C U47G | 0.225
55 | C15G A71C | 0.222
56 | G67A G81C | 0.117
57 | G40C C49U | 0.125
58 | C3G C4G | 1
59 | C48G C63U | 1.08
60 | A70G C86A | 0.743
61 | G11C G17A | 0.231
62 | C19U A71G | 0.104
63 | G28C C36G | 0.0773
64 | U46A A51U | 0.536
65 | A8C A78G | 0.35
66 | G6C C19U | 0.0773
67 | G38C U69G | 0.356
68 | C32A C75U | 0.0791
69 | U12G C14A | 0.356
70 | A42U C44A | 0.688
71 | C33A G76U | 0.326
72 | C66A C85A | 0.939

Row | Variant | self-cleavage
73 | G10U G17U | 0.487
74 | G2C U79G | 0
75 | G59C U79G | 0.712
76 | C63A U65G | 0.914
77 | U47G A87C | 1.05
78 | C21G U37G | 0.166
79 | C18U C63A | 0.293
80 | G5A C61U | 0.0326
81 | C7A G10A | 0.0831
82 | U60C C75G | 0.128
83 | C26G U60C | 1.31
84 | C26G U60A | 1.05
85 | C3A C63U | 0.559
86 | A43U G80U | 0.173
87 | C26G C64A | 0.554
88 | U12G U60C | 0.895
89 | G40U A78C | 0.132
90 | G67C G73A | 0.327
91 | C22A G31A | 0.128
92 | C19U G52C | 0.326
93 | A8C C24A | 0.434
94 | U65G C84G | 0.569
95 | G6C G11U | 0
96 | G40A U47A | 0.997

Row | Variant | self-cleavage
97 | A51G C61U | 0.889
98 | G29A U72A | 0.122
99 | G10C G25C | 0.178
100 | U46C U72G | 0.475
101 | C48U G82U | 0.437
102 | C33A G55U | 0.349
103 | C41A A87U | 0.866
104 | A8U A56C | 1.25
105 | C24A C86A | 0.607
106 | G28U A71U | 0.246
107 | C32U G67U | 0.88
108 | C13G C58U | 0.0898
109 | C30G G34C | 0.107
110 | A45G G55C | 1.04
111 | C15G C22U | 0.222
112 | C75U A78G | 0.214
113 | G50C G52A | 0.66
114 | U60G G81A | 0.269
115 | C13A G29A | 0.0268
116 | G2U G25C | 0.0244
117 | C22A G76A | 0.212
118 | C21G C32A | 0.0415
119 | G34C U60G | 0.0978
120 | G10C C61A | 0.734

Row | Variant | self-cleavage
121 | G11U C22G | 0
122 | G11U C22U | 0.103
123 | G35C G38C | 0.128
124 | G28C G74U | 0.0692
125 | G31C C33G | 0.0852
126 | A45U G53U | 0.997
127 | G2C A56C | 0.0678
128 | C7A A42G | 0.0831
129 | G10C C58G | 0.917
130 | U23C A78U | 0.151
131 | G17C U37C | 0.344
132 | G1A G11U | 0.0992
133 | G82A C86U | 0.522
134 | U23G G68A | 0.565
135 | G1U G53C | 0.283
136 | G5U G80C | 0.0811
137 | C3G C7A | 0.0213
138 | G6A C49A | 0.566
139 | G17U A78U | 0.0739
140 | U23A G76A | 0.978
141 | U27A C36A | 0
142 | C41U A78C | 0.178
143 | U65G C75U | 0.212
144 | C44G C61G | 0.441

Row | Variant | self-cleavage
145 | G6A C75G | 0.0369
146 | U20G C36G | 0.151
147 | G76A A78U | 0.673
148 | C57G C75A | 0.287
149 | U9C C21G | 0.277
150 | C21G C64G | 0
151 | C22G C48G | 0.0489
152 | G29U G50A | 0.104
153 | C18A C63U | 0.145
154 | C36G C44G | 0
155 | U47G G80C | 0.192
156 | G2U C57A | 0.156
157 | G34C C63G | 0.0378
158 | G80C G81U | 0.231
159 | C4A C84A | 0.192
160 | G68A C84A | 0.817
161 | C19A G59C | 0.04
162 | A16C A77C | 0.266
163 | G5U C86A | 0.755
164 | G25U A42U | 0.173
165 | G17U C75G | 0.0594
166 | U23A U47C | 1.14
167 | C18A | 0.145
